Measurements published in US20240117018A1.

Columns and labels:
Experiment in all cases: cell-based or functional assay
[1] = biological target: HIV-1 Env pseudovirus 235-47 (HIV-1)
[2] = biological target: HIV-1 Env pseudovirus C3347.c11 (HIV-1)
[3] = biological target: HIV-1 Env pseudovirus X2131_C1_B5 (HIV-1)
[4] = biological target: HIV-1 Env pseudovirus T255-34 (HIV-1)
[5] = biological target: HIV-1 Env pseudovirus P1981_C5_3 (HIV-1)
[6] = biological target: HIV-1 Env pseudovirus 620345.c01 (HIV-1)
[7] = biological target: HIV-1 Env pseudovirus P0402_c2_11 (HIV-1)
[8] = biological target: HIV-1 Env pseudovirus X1193_c1 (HIV-1)

Row | Substance | IC50 (Titer in TZM.bl cells) [1] [µg/mL] | IC80 (Titer in TZM.bl cells) [1] [µg/mL] | IC50 (Titer in TZM.bl cells) [2] [µg/mL] | IC80 (Titer in TZM.bl cells) [2] [µg/mL] | IC50 (Titer in TZM.bl cells) [3] [µg/mL] | IC80 (Titer in TZM.bl cells) [3] [µg/mL] | IC50 (Titer in TZM.bl cells) [4] [µg/mL] | IC80 (Titer in TZM.bl cells) [4] [µg/mL] | IC50 (Titer in TZM.bl cells) [5] [µg/mL] | IC80 (Titer in TZM.bl cells) [5] [µg/mL] | IC50 (Titer in TZM.bl cells) [6] [µg/mL] | IC80 (Titer in TZM.bl cells) [6] [µg/mL] | IC50 (Titer in TZM.bl cells) [7] [µg/mL] | IC80 (Titer in TZM.bl cells) [7] [µg/mL] | IC50 (Titer in TZM.bl cells) [8] [µg/mL] | IC80 (Titer in TZM.bl cells) [8] [µg/mL]
1 | 3BNC117 (antibody) | 0.03 | 0.12 | 0.03 | 0.13 | 0.43 | 1.96 | 0.02 | 0.14 | 0.74 | 3.62 | > 15 | > 15 | 0.06 | 0.38 | 0.06 | 0.25
2 | VRC07 (antibody) | 0.024 | 0.075 | 0.06 | 0.38 | 0.219 | 1.03 | 0.227 | 0.987 | 0.213 | 0.609 | > 50 | > 50 | 0.085 | 0.422 | 0.037 | 0.249
3 | 8ANC195 (antibody) | > 50 | > 50 | > 50 | > 50 | 3.47 | > 50 | 0.54 | 8.09 | 0.14 | 1.15 | > 50 | > 50 | 0.62 | 6.35 | 0.27 | 1.66
